Assay results from patent US20120003668A1, “HIGH RESOLUTION COMPLEX STRUCTURE AND ALLOSTERIC EFFECTS OF LOW MOLECULAR WEIGHT ACTIVATORS ON THE PROTEIN KINASE PDK1” (UNIVERSITAET DES SAARLANDES, priority 2008, published 2012).
Positions count from the first letter of the chain named. Entries after “also recorded” stand apart in the source; their conditions may differ.

B1: PDK1 CD (50-359) [Phe224Trp] (enzyme)
chain: AMDGTAAEPRPGAGSLQHAQPPPQPRKKRPEDFKFGKILGEGSFSTVVLARELATSREYAIKILEKRHIIKENKVPYVTRERDVMSRLDHPFFVKLYFTFQDDEKLYFGLSYAKNGELLKYIRKIGSFDETCTRFYTAEIVSALEYLHGKGIIHRDLKPENILLNEDMHIQITDWGTAKVLSPESKQARANSFVGTAQYVSPELLTEKSACKSSDLWALGCIIYQLVAGLPPFRAGNEYLIFQKIIKLEYDFPEKFFPKARDLVEKLLVLDATKRLGCEEMEGYGPLKAHPFFESVTWENLHQQTPPKLT
notes: also called PDK1[Phe224Trp]; PDK1 Phe224Trp
B2: PDK1 CD (50-359) [Thr226Trp] (enzyme)
chain: B1 chain with W175F, T177W
notes: also called PDK1[Thr226Trp]; PDK1 Thr226Trp

How the values were obtained:
PDK1 = PDK1 protein kinase activity test with T308tide substrate; type: biochemical, human
Procedure: In brief, PDK1 activity assay was performed at room temperature (22° C.) in a 20 μl mix containing 50 mM Tris pH 7.5, 0.05 mg/ml BSA, 0.1% β-mercaptoethanol, 10 mM MgCl2, 100 μM [γ^32P]ATP (5-50 cpm/pmol), 0.003% Brij, 150 ng PDK1, and T308tide (from 0.1 to 1 mM). […] Experiments were repeated at least twice.

PDK1 catalytic domain = target: T1, PDK1 catalytic domain (Homo sapiens, UniProt O15530); assay: TNP-ATP fluorescence probing of the ATP binding site conformation; type: biochemical; settings: 40 μM TNP-ATP, 15 μM PDK1 catalytic domain
T1 construct: The catalytic domain (CD) of PDK1 50-359 and its mutants
T1 sequence (O15530 50-359): B1 chain with W175F
Text: Probing the conformation of the ATP binding site in PDK1: The activation of PDK1 by HM-polypeptides and small compounds is due to a change in the conformation of the enzyme. We probed the conformation of the ATP binding site in PDK1 by scanning the steady-state fluorescence of TNP-ATP/PDK1, in the presence or absence of P-HM-polypeptides, PIFtide, or small molecular weight compounds. Data were obtained in a Varian Cary Eclipse spectrofluorometer (excitation λ=479 nm; emission scanning, λ=500-600 nm; excitation slit=10 nm; emission slit=10 nm) at a rate of 200 nm/min, with 150 datapoints/100 nm scanning and 0.3 s averaging time. The incubation was performed at 20° C. in a buffer containing 50 mM Tris pH 7.5, 0.1 mM EDTA, 187 mM NaCl, 40 μM TNP-ATP, 15 μM PDK1 catalytic domain, 1 mM DTT and 1% DMSO. In the absence of PDK1, TNP-ATP produced approximately 1.5 arbitrary units (a.u.) of fluorescence, and the inclusion of PDK1 increased its fluorescence intensity to approximately 3.3 a.u. […] In preliminary tests, inclusion of 2.5 mM MgCl2 in the assay mix produced similar results. Data for each condition are the average of 3 scans.

PIFtide = target: T2, PIFtide
T2 chain: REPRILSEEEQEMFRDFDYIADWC

[1] = target: biotin-P-HM-polypeptide derived from S6K1; assay: SPR (BiaCore), immobilised biotin-P-HM-S6K
biotin-PIFtide = target: T3, biotin-PIFtide (biotin (position not given)); assay: SPR (BiaCore), immobilised biotin-PIFtide
T3 construct: Biotinylated PIFtide
T3 peptide: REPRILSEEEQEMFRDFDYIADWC

[2] = target: biotin-P-HM-polypeptide derived from S6K1; assay: SPR (BiaCore), biotin-P-HM-S6K chip; injected at 1.8 vs 1.3 µM
[3] = target: biotin-P-HM-polypeptide derived from S6K1; assay: SPR (BiaCore), biotin-P-HM-S6K on streptavidin chip; mutant injected at 1.3 or 1.8 µM (which mutant at which concentration is not stated)

biotin-P-HM-polypeptide derived from S6K1, sequence (peptide, as listed by the source limits assumed): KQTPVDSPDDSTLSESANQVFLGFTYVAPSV

Row | Molecule | activation of PDK1 (PDK1; T308tide as substrate) | effect on TNP-ATP fluorescence intensity in the presence of PDK1 (PDK1 catalytic domain) | Km (PDK1; estimated, 22° C.) | PDK1 activity, T308tide as substrate (PIFtide) | stated: activates; PDK1 activity (%) with T308tide as substrate (PIFtide) | percent of maximal binding of the wild type protein [1] | percent of maximal binding of the wild type protein (biotin-PIFtide) | response units [2] | response units [3] | stated: no activation; PDK1 activity (%) with T308tide as substrate (PIFtide)
1 | O=C(O)/C=C(\CCc1ccc(Br)cc1F)c1ccccc1 [PS133] | nor did they activate PDK1 | did not produce any decrease; also recorded: did not affect |  |  |  |  |  |  |  | 
2 | KTFCGTPEYLAPEVRR [T308tide, polypeptide substrate of PDK1 derived from the PDK1 phosphorylation site on PKB] |  |  | > 10 mM |  |  |  |  |  |  | 
3 | B1 |  |  |  | the wild type protein and PDK1[Phe224Trp] were activated by PIFtide | The bar without PIFtide is at 100 %. The two hatched PIFtide bars (labelled 2.5 and 40 µM) are both between 440 and 480 %. | 50% | ~50% | 200 RU | > 200 RU | 
4 | B2 |  |  |  | PDK1[Thr226Trp] was not activated by PIFtide |  | 50% | ~50% | 200 RU | > 200 RU | The bar without PIFtide is at 100 %. The two hatched PIFtide bars (labelled 2.5 and 40 µM) stay at about 100 %.
